B1: Hairpin Ribozyme (parent)
chain: GUCCUCUUUCACGUGCGCGUGAAAGAGAGAAGUGAACCAGAGAAACACACGUUGUGGUAUAUUACCUGGUA

Variants of: B1
Assay: self-cleavage, relative activity (ratio to wild type); higher = more cleavage; co-transcriptional

Variant | self-cleavage
C16G U58G | 0.749
A31U U52A | 0.048
A22G G54A | 0.428
C3G G34A | 0.27
C37G | 0.363
A35G A59U | 0.229
A39U G57A | 0.155
C46U U58A | 0.0874
G27C A43C | 0.107
U62A A71C | 0.325
A47U U52G | 0.256
A30C A43C | 0.261
G40U U52C | 0.333
C10U C65G | 0.284
G15U U60G | 0.57
A22C G68C | 0.247
C18G G51U | 0.953
A28G U52A | 0.814
A47G U52G | 0.259
U60C A64C | 0.201
U7C C38G | 0.202
U5C G51U | 0.704
U33G U58A | 0.0636
U9G G56A | 0.18

Variant | self-cleavage
G40U U55C | 0.171
G40U U55G | 0.232
G34U A45U | 0.351
C4A C18U | 0.342
G17C U67C | 0.197
U8G A31U | 0.112
A35C A49G | 0.341
A45G A59C | 0.151
C46U A47U | 0.163
G1C A26U | 0.18
G56C G68U | 0.173
C18U A44G | 0.113
U9G G21A | 0.554
G54U A64C | 0.128
A24U A39G | 0.34
C6G A26U | 0.198
C6G A26G | 0.203
C12G A41U | 1.25
U20C U70G | 0.909
C4G A71G | 0.241
G32A G51C | 0.113
A30C U70A | 0.159
C37U G42A | 0.198
A41G A49U | 0.105

Variant | self-cleavage
U9G U20C | 0.682
A36G A49C | 0.0302
A30U A45C | 0.0664
A24G A59G | 0.272
U33C G54A | 0.0427
C6U A28U | 0.495
U14A A71G | 1.08
C10U C37A | 0.364
A11U A24C | 0.211
C12U A28U | 0.583
A24U U67G | 0.231
A41C U52A | 1.17
A11C G34A | 1.01
G42U A44U | 0.19
G13U A39C | 0.498
G13U A39U | 0.257
U9A G27A | 0.25
C66A U67G | 0.091
A43G G68C | 0.0248
A30G A71U | 0.225
C46U U63A | 0.0217
A28C G54C | 0.187
C3G C65U | 0.0576
G27C U55A | 0.156

Variant | self-cleavage
G34U U60A | 1.52
C50U G57C | 0.16
A30C A59U | 0.169
G25C U55C | 0.108
C18A U67C | 0.274
U5A G21C | 0.156
A22U A36G | 0.849
U7C G57A | 0.153
A39G G42A | 0.114
U20A A28U | 0.497
C12U U62G | 0.235
A36U A59C | 0.228
C10A A26G | 0.663
C10G U52C | 0.536
A43U A49U | 0.27
A41U A71C | 1.58
G21C U63G | 0.191
A36C G69U | 0.227
G27C A36C | 0.113
U14A G25A | 0.56
A41U U53C | 1.25
U2A A31G | 0.334
G57A U63C | 0.151
U9A A30U | 0.195

Variant | self-cleavage
C6A A23C | 0.52
C46G C66G | 0.162
G29A A44C | 0.17
C37A C66A | 0.0612
A45U C65A | 0.131
G19A A26C | 0.541
U14C U67A | 0.151
A36G A44C | 0.0853
U58A U62G | 0.296
C4G U55A | 0.119
U8C A49U | 0.244
U7G G13U | 0.632
G40C U58A | 0.16
A24G A61U | 0.084
A41U G57C | 0.178
G25A C65U | 0.215
G32C C38U | 0.181
C37G U52A | 0.358
C16U U58G | 0.765
G1C A64G | 0.143
C18U G40C | 0.0598
G21U C65A | 0.996
U33A A41C | 0.0532
A39U A47G | 0.158

Variant | self-cleavage
A43U U70C | 0.159
A28G A44C | 0.202
C46G U70A | 0.161
A11C C37G | 0.435
U2G G32U | 0.119
U8A A28C | 0.385
C6A A43G | 0.223
A26U G68U | 0.207
U14C G40A | 0.326
U33A U60A | 0.0246
G21A G34U | 1.08
A39G U67A | 0.126
U2A U33A | 0.077
G27U U52C | 0.377
A22U A30G | 0.159
G51A A64U | 0.22
G19C G42A | 0.194
C16U G21C | 0.749
G15A U60A | 0.767
C6G A49C | 0.0827
G29A A43U | 0.0816
A30C G40A | 0.116
G27A A61G | 0.114
G19A A44U | 0.269

Variant | self-cleavage
U5A G69U | 0.115
U7C A23G | 0.6
A39C C48U | 0.145
U8G A36C | 0.5
C18A A64U | 0.158
A44U A49G | 0.0827
G17U G29U | 0.128
G1U C16G | 0.127
G27A U67A | 0.0995
C10G A22G | 0.649
G15U A61U | 0.182
C18U | 1.06
A26C U55G | 0.297
C10U A44U | 0.187
C37U A71G | 0.779
A49C G69A | 0.139
A28U C37A | 0.143
C12A U58A | 0.733
C18A G68C | 0.18
A11C G69C | 0.182
C10A | 0.722
C4U U52A | 0.295
G19U G34C | 1.36
G15C A43G | 0.11

Variant | self-cleavage
U9C A71G | 0.933
G13C C46U | 0.218
A30U U62C | 0.144
A11G U20C | 0.857
U62G A64C | 0.2
C3A U55C | 0.261
U2C G15U | 0.117
C3U G40U | 0.119
C12A U63G | 0.213
U20C A41U | 1.36
U7A A49C | 0.18
G17A G25A | 0.587
G1U G32A | 0.146
U9C C65G | 0.159
U33C A71U | 0.144
G54U C66A | 0.228
U20A U52G | 0.685
C6U U58A | 0.66
A44U U63G | 0.209
G13C U14A | 0.688
C46A A49C | 0.156
A36C C48G | 0.118
A49G U70G | 0.453
U7A G42A | 0.166

Variant | self-cleavage
U20G U70C | 0.783
A35G C66G | 0.127
U9A C16G | 0.511
C50U G69A | 0.112
C4G G51A | 0.245
U8A C37U | 0.56
A31G G34C | 1.44
A26U U58A | 0.391
U20G C50A | 0.246
A31U G40U | 0.182
G21U U52C | 0.764
A61U C66U | 0.176
C12A A49G | 0.474
A22U G68A | 0.389
U8G C46U | 0.195
U58G U60C | 0.731
U7C A41C | 1.01
C4G C38G | 0.104
G32A U62A | 0.162
G21U C38U | 0.357
G40C C66U | 0.184
A24G G25U | 0.527
A28C A30C | 0.0316
A43U A64C | 0.161

Variant | self-cleavage
A61U C65G | 0.193
U7C U52C | 0.528
C12G A31G | 0.455
A26C U58G | 0.496
C3G G17C | 0.198
G13C U67C | 0.126
C12G A64U | 0.173
C3U C37A | 0.315
C6G U58C | 0.484
A26C A41U | 0.74
G25C U52C | 0.657
A23U G27U | 0.289
U58A G69A | 0.201
G32C A47G | 0.0562
C10U U33G | 0.196
G1A G17A | 0.0844
C4G U53A | 0.15
G40U G68C | 0.163
U9C G42A | 0.081
G25A U53G | 0.524
A11G G29A | 0.101
A30C A39U | 0.0707
G15U A22C | 0.681
C10U G57A | 0.249

Variant | self-cleavage
A11C G42A | 0.278
C10U A71U | 0.706
G19C G40U | 0.091
G40A U55A | 0.157
A64G A71U | 0.287
A24U G42C | 0.394
G21A C48A | 0.19
G21C C46G | 0.162
A41G G51A | 1.09
A47G G56C | 0.132
U33G C38U | 0.204
A22G G51C | 0.745
A28U G51A | 0.716
A43C U53G | 0.103
A23G C46A | 0.132
U7C C12G | 0.758
C4U G15A | 0.33
C3G G21C | 0.154
C6U A23C | 0.608
G1C A35U | 0.254
U8A C65A | 0.63
C10G G68C | 0.199
C16G U67G | 0.191
G17C A43U | 0.0572

Variant | self-cleavage
A47C U63G | 0.104
A47C U63C | 0.0902
A30U C66G | 0.165
C4G G19A | 0.143
C38G C48A | 0.202
G19A A43U | 0.102
G19U U60G | 0.444
U14G A35G | 0.715
U63A C66A | 0.118
U20A A22G | 0.587
C6U U7C | 0.555
A30C A64G | 0.0788
G42C A43U | 0.106
C10A A41G | 0.694
G19U U20A | 0.825
G13U A64C | 0.267
G19C | 0.85
A28C A64G | 0.285
C12U A24C | 0.721
A44G C46U | 0.139
G1A G34A | 0.18
A22G A45U | 0.268
A61U U62C | 0.197
C3G G27C | 0.0838

Variant | self-cleavage
C3G G27A | 0.266
G1C U14G | 0.101
G15C C50A | 0.169
G27A A39U | 0.166
U5G A26C | 0.68
C66U G69A | 0.216
A31C G51U | 0.149
U14C G68A | 0.234
A47G U70A | 0.204
A39U G69C | 0.073
G1C A23G | 0.132
U9G U63G | 0.206
U20A U60C | 0.995
A24G A49G | 0.352
A11U A43U | 0.078
A28U A36G | 0.656
C37A G56A | 0.156
A11U U20C | 1.11
A24C A44U | 0.17
U14C A30G | 0.116
C65U G68U | 0.327
U52G C65U | 0.302
A44C C46U | 0.238
G17A A43U | 0.105

Variant | self-cleavage
C3G C48G | 0.196
C3G C48A | 0.0662
U8A G54C | 0.284
U52C U58G | 0.606
G57U A61U | 0.203
C3A U14A | 0.525
G32C G51A | 0.14
A26U A43U | 0.139
A11U C65A | 0.719
U9C G54U | 0.539
A31G A45G | 0.0922
A24C U52A | 1.05
A26G G40U | 0.128
C10G A24G | 0.63
G29A C38U | 0.19
G19U A28C | 0.357
G34A G57C | 0.247
G40U A49G | 0.175
U7G U55C | 0.152
G15C U52C | 1.05
G13U C18U | 0.967
G15A C48G | 0.0967

Source: the RNAGym collection of RNA variant scans (doi:10.7554/elife.80360)
